# Test results reported in PMC11488100, “PET imaging of CXCR4 expression using [^18F]AlF-NOTA-QHY-04 for hematologic malignancy and solid tumors” (Theranostics, 2024).
# Bridge positions count the residues as written; N and C are the ends. Square brackets hold non-standard residues; d marks the D form. Peptide text beside a SMILES is read from it. * marks the point of attachment. NOTA = O=C(O)CN1CCN(CC(=O)O)CCN(CC(=O)*)CC1; 2Nal = N[C@@H](Cc1ccc2ccccc2c1)C(=O)O; Pen = CC(C)(S)[C@H](N)C(=O)O; 4Amb = NCc1ccc(C(=O)O)cc1; Ahx = NCCCCCC(=O)O
# Key:
# [1] = design: species or system mice; settings: mouse, in vivo
# Description: (§1) The xenografted mice were injected with [^18F]AlF-NOTA-QHY-04 (3.70 ± 0.74 MBq) in about 150 μL saline via the tail vein. All the PET scans were performed with micro-PET/CT (IRIS PET/CT, Inviscan, France) and the radioactivity were expressed as %ID/mL. Detailed procedures for dynamic, static imaging and blocking studies are provided in the supplemental materials. Biodistribution studies were conducted using mice with xenografted A549/CXCR4 tumors with and without blocking (n = 3). The mice were sacrificed immediately after static PET/CT 1 h post injection (p.i.), then the tumors and organs were quickly collected, weighed and counted for radioactivity by a γ-counter. The γ-counter activity readings were background- and decay-corrected and represented as the percentage of injected dose per gram of tissue (%ID/g).
# [2] = test system: NCI-H69 subcutaneous tumor xenografts; design: species or system mice; settings: mouse, in vivo
# Description: as §1
# 7.4, 150 mM NaCl, 0.005% tween-20) with continuous shaking at 1000 rpm. Biotinylated CXCR4 was immobilized on Super Streptavidin (SSA) biosensors by immersing the sensors in a protein solution of 35 µg/mL. […]
# and 1 μM NOTA-QHY-04 sample) was prepared and flowed. […] Prior to fitting, the data were baseline-subtracted and analyzed using a 1:1 binding model and the ForteBio data analysis software. Mean Kd value was determined by applying a global fit to all the data. […]
# NaOH. Finally, the cell lysates were collected and measured by an automatic gamma counter (2470 Wizard2, PerkinElmer). […]
smiles,measurement,setting,value
C[C@H](NC(=O)[C@H](CCCNC(=N)N)NC(=O)CCCCCNC(=O)c1ccc(CNC(=O)CN2CCN(CC(=O)O)CCN(CC(=O)O)CC2)cc1)C(=O)N[C@@H]1CSSC(C)(C)[C@@H](C(=O)O)NC(=O)[C@H](Cc2c[nH]cn2)NC(=O)[C@H](Cc2ccc3ccccc3c2)NC(=O)[C@H](CCCNC(=N)N)NC1=O [[^18F]AlF-NOTA-QHY-04] ({NOTA-4Amb-Ahx}-RA[dC]R[2Nal]H[Pen]-OH; disulfide 3-7),Tumor-to-organ ratio T/Blood,[1],3.63 ± 0.56
same,Tumor-to-organ ratio T/Heart,[1],7.77 ± 0.60
same,Tumor-to-organ ratio T/Kidney,[1],0.23 ± 0.05
same,Tumor-to-organ ratio T/Liver,[1],1.84 ± 0.17
same,Tumor-to-organ ratio T/Muscle,[1],10.94 ± 5.33
same,time of highest tumor uptake,[2],about 50 min
